This note sets out measurements from PMC2133122.

Where “and” joins values, the source holds several entries; their conditions need not be identical. Equal entries are not always repeated.

The target of assay [1] is mutant mtHsp70 encoded by the allele ssc1-2 (Ssc1-2p) (S. cerevisiae (endogenous in yeast mitochondria)) (UniProt P0CS90). The experiment in a line: co-IP.
Assay [2] has as its target mitochondrial Hsp70 (mtHsp70, Ssc1p), wild type (S. cerevisiae (endogenous in yeast mitochondria)) (UniProt P0CS90). The experiment in a line: co-IP.

In assay [1], “Su9-DHFR, imported into mitochondria (from UniProt P00375 1-187)” gave a fold efficiency of binding against wild-type mtHsp70 greater than 4 fold.
Consider “Tim44Δ18 (Tim44 with a deletion of residues 185–202) (natural protein)”, for which, in assay [2], the fold reduction of complex formation with mtHsp70 against authentic Tim44 was 3 fold and 4 fold; the percent reduction of complex formation with mtHsp70 against authentic Tim44 came to 70%.
